{
  "source": "patent US20170073382",
  "molecular_target": "synthetic TAL effector (RVG-LAMP-2B-NLS-TALE) (Artificial Sequence) (UniProt P14727)",
  "test": "cell_activity",
  "data": [
    {"substance": "gfaABC1D-NeuroD1 plasmid without TAL effector binding site", "values": [
      {"measurement": "binding signal", "value": 1, "unit": "fold"}
    ]}
  ]
}
